Measured values from publication PMC12658140 (2025).

Assays:
Assay in all cases: BLI
H3 stem with T32HA2 = H3 stem with T32HA2 (influenza A virus H3N2 …)
H3 stem with R32HA2 = H3 stem with R32HA2 (influenza A virus H3N2 …)
H3 stem with I32HA2 = H3 stem with I32HA2 (influenza A virus H3N2 …)

B1: 240-14 IgA 2F02 Fab (Fab, V domains shown)
VH: EVQLLESGGGLVQPGGSLRLSCAASGFTFSTYAMSWVRQAPGKGLEWVSTISGSGGSTYDAESVKGRFTISRDNSKNTLYLQMNSLRAEDTAVYYCAKEGGDFWSGYYANWFDPWGQGTLVTVSS
VL: QSALTQPRSVSGSPGQSVTISCTGTRSDVGGYNYVSWYQQHPGKAPKVIIYDVKKRPSGVPDRFSGSKSGNTASLTISGLQAEDEADYYCSAFAGSHTLFGGGTKVTVL
B1 was tested, and the Kd (H3 stem with T32HA2) was 17 nM, the Kd (H3 stem with R32HA2) was 28 nM and the Kd (H3 stem with I32HA2) was 22 nM.
